This data set deals with the molecule itself. Briefly: structure of the VLP (self-assembly).

B1: Ring10-ORF1delCterm Helix (Ring10 ORF1 with a deletion of the C-terminus amino acids 610-672) VLP from Expi293 cells (other)
chain: MPWWYRRRSYNPWRRRNWFRRPRKTIYRRYRRRRRWVRRKPFYKRKIKRLNIVEWQPKSIRKCRIKGMLCLFQTTEDRLSYNFDMYEESIIPEKLPGGGGFSIKNISLYALYQEHIHAHNIFTHTNTDRPLARYTGCSLKFYQSKDIDYVVTYSTSLPLRSSMGMYNSMQPSIHLMQQNKLIVPSKQTQKRRKPYIKKHISPPTQMKSQWYFQHNIANIPLLMIRTTALTLDNYYIGSRQLSTNVTIHTLNTTYIQNRDWGDRNKTYYCQTLGTQRYFLYGTHSTAQNINDIKLQELIPLTNTQDYVQGFDWTEKDKHNITTYKEFLTKGAGNPFHAEWITAQNPVIHTANSPTQIEQIYTASTTTFQNKKLTDLPTPGYIFITPTVSLRYNPYKDLAERNKCYFVRSKINAHGWDPEQHQELINSDLPQWLLLFGYPDYIKRTQNFALVDTNYILVDHCPYTNPEKTPFIPLSTSFIEGRSPYSPSDTHEPDEEDQNRWYPCYQYQQESINSICLSGPGTPKIPKGITAEAKVKYSFNFKWGGDLPPMSTITNPTDQPTYVVPNNFNETTSLQNPTTRPEHFLYSFDERRGQLTEKATKRLLKDWETK
notes: also called Ring10-ORF1 delCterm-Helix (Δ610-672) (7052)
As to B1, the binding result is recorded as “binds”.

These data come from patent publication US20250320465A1 (FLAGSHIP PIONEERING INNOVATIONS V, published 2025).
